{"source": "paper PMC9129042", "about": "(PLoS ONE, 2022)", "binders": {"B1": {"name": "A19-46.1 (antibody, V domains shown)", "VH": "QVQLVESGGGVVQPGRSLRLSCAASGFTLSSYGMHWVRQAPGKGLEWVAVISYDGSNKYYVDSVKGRFTISRDNSKNTLYLQMNSLRAEDTAVYYCARGWAYWELLPDYYYGMDVWGQGTTVTVSS", "VL": "QTVVTQEPSFSVSPGGTVTLTCGLSSGSVSTAYFPSWYQQTPGQAPRTLIYGTNTRSSGVPDRFSGSILGNKAALTITGAQADDESDYYCVLYMGRGIVVFGGGTKLTVL"}}, "target": "T1, D614G S2P probe (SARS-CoV-2, WA-1 with D614G, UniProt A0A6H1PJZ3, D614G | K986P | V987P, biotin on the AVI tag (…))", "T1 construct": "also called single mutated D614G S2P", "experiment": "BLI", "details": "both partners purified"}
{"binder": "B1", "values": [{"measurement": "binding result", "result": "binds"}]}
